The values that follow come from EP2986720B1, “URICASE MUTANTS” (Council of Scientific & Industrial Research, priority 2013, dated 2014).

What all share (assay): Enzyme kinetic study of uricase (4-AAP/phenol/HRP colour assay, 505 nm)
In data set [1] the test system is O=c1[nH]c(=O)c2[nH]c(=O)[nH]c2[nH]1. Type of data set: biochemical, Kluyveromyces lactis. Particulars: other: substrate uric acid 10 to 600 µM, pH 7.0, 35°C, Table 1. As to the method: (§1) Enzymatic assay of uricase: Substrate mixture contains • a. 2.2 ml of 2 mM Uric acid • b. 0.15 ml of 60 mM 4-Aminoantipyrine (4-AAP) • c. 0.15 ml of 1.5% Phenol • d. 0.15 ml of 20 U/ml Horseradish peroxidase (HRP) • e. 0.1 M respective buffer to make up to 3 ml • a. Uricase added to the above mixture and incubated at 25°C for 20 min. The colour is measured at 505 nm (Chen, Wang et al. 2008). • b. The reaction mix was set for 300 µl rather than 3 ml for convenient measuring in BiotekPowerwave X Elisa plate reader. The amounts of the solutions added in the assay mix were calculated accordingly for 300 µl.
(§2) The kinetics of the uricases was studied to evaluate the efficiency of the enzymes. The kinetic parameters of the uricases of all the species were determined at their respective optimum pH and optimum temperatures. The substrate (uric acid) was added in increasing concentrations ranging from 10 to 600 µM (10, 20, 40, 80, 100, 200, 300, 400, 500, and 600) in triplicates. The assay reagents for the kinetic studies were added in 96 well plates in triplicates in the buffer of pH 7.0 and incubated at 35°C. Equal amounts of enzyme were added and immediately readings were taken at 505 nm. Around 30 readings were taken at the interval of 1min. The readings at a particular time point were taken for further steady state kinetic study of uricases. The KM and Vmax values were determined from Michaelis-Menten saturation curve by the non-linear curve fit (ORIGIN 7.5). kcat and kcat/KM values were also calculated (table 5). Table 5: Kinetic properties of the uricases of this invention

Data set [2] addresses T1, Kluyveromyces lactis uricase KlUOX (wild type) (SEQ ID NO.1) (Kluyveromyces lactis, UniProt Q6CNP7).
T1 sequence (Q6CNP7 1-308): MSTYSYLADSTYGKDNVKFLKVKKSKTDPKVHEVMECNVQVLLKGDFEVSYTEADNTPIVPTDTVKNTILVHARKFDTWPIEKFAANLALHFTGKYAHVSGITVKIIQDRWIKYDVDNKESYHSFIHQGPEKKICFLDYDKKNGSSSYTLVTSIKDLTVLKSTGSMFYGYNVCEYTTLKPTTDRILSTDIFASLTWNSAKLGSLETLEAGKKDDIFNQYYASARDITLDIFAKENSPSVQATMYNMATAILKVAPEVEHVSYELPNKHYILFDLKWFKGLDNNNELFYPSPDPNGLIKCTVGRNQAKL
Type of data set: biochemical. To be noted: substrate uric acid; pH 7.0, 35°C; Table 5. As to the method:
as §1, §2

For data set [3], the target named is T2, Kluyveromyces lactis uricase variant KI F167W, Mutant 2 (SEQ ID NO.3) (Kluyveromyces lactis, UniProt Q6CNP7, F167W).
T2 sequence (Q6CNP7 1-308 F167W): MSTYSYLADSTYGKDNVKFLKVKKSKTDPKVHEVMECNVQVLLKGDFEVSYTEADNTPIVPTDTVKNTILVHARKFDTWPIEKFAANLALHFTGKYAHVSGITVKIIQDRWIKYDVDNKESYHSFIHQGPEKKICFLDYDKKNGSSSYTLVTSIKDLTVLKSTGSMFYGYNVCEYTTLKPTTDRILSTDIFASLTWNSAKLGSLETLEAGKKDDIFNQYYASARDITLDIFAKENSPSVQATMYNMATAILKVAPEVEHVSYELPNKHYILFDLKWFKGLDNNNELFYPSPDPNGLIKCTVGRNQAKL
Type of data set: biochemical. To be noted: substrate uric acid; pH 7.0, 35°C; Table 5. On the procedure:
as §1, §2

The target in data set [4] is T3, Kluyveromyces lactis uricase variant KI T62S, Mutant 1 (SEQ ID NO.2) (Kluyveromyces lactis, UniProt Q6CNP7, T62S).
T3 sequence (Q6CNP7 1-308 T62S): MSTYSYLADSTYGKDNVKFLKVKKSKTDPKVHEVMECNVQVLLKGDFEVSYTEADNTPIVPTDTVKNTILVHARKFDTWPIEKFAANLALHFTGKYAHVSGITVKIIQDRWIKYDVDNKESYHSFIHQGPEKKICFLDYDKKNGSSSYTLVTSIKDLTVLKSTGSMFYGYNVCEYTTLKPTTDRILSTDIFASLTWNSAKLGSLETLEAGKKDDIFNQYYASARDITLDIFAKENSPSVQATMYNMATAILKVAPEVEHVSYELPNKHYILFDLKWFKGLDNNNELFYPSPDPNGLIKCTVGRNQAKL
Type of data set: biochemical. Particulars: substrate uric acid; pH 7.0, 35°C; Table 5. On the procedure: as §1, §2

The test system of data set [5] is O=c1[nH]c(=O)c2[nH]c(=O)[nH]c2[nH]1. Type of data set: biochemical, Aspergillus flavus. To be noted: other: substrate uric acid 10 to 600 µM; respective optimum pH and temperature; Table 1; pH 7.0. On the procedure:
as §1, §2

Substrate in data set [6]: O=c1[nH]c(=O)c2[nH]c(=O)[nH]c2[nH]1
Type of data set: biochemical, A. globiformis. Particulars: other: substrate uric acid 10 to 600 µM; respective optimum pH and temperature; Table 1; pH 7.0. As to the method:
as §1, §2

Substrate in data set [7]: O=c1[nH]c(=O)c2[nH]c(=O)[nH]c2[nH]1
Type of data set: biochemical, Candida utilis. To be noted: other: substrate uric acid 10 to 600 µM; respective optimum pH and temperature; Table 1; pH 7.0. On the procedure:
as §1, §2

Substrate in data set [8]: O=c1[nH]c(=O)c2[nH]c(=O)[nH]c2[nH]1
Format: biochemical, Kluyveromyces lactis. Particulars: other: substrate uric acid 10 to 600 µM, pH 7.0, 35°C, Table 1. On the procedure:
as §1, §2
This is another data set of the same source.

As for “Kluyveromyces lactis uricase variant KI T62S, Mutant 1 (SEQ ID NO.2) (Kluyveromyces lactis NRRL Y-1140; T62S)”, in data set [1], the Km (commonly the substrate concentration at which the rate is half of its maximum) is 16.2 µM; the kcat (usually the maximal rate divided by the concentration of active sites) came to 0.2387 s⁻¹; the kcat/Km (in general, the second-order rate constant that governs catalysis at low substrate concentration) came to 14700 M⁻¹ s⁻¹.
Turning to `O=c1[nH]c(=O)c2[nH]c(=O)[nH]c2[nH]1` [uric acid], the Kcat in data set [2] is 0.2027 s⁻¹; in data set [3], 0.242 s⁻¹; in data set [4] it was 0.2387 s⁻¹.
Consider “Kluyveromyces lactis uricase variant KI F167W, Mutant 2 (SEQ ID NO.3) (Kluyveromyces lactis NRRL Y-1140; F167W)”, for which, in data set [1], the Km is 28.07 µM, the kcat worked out at 0.242 s⁻¹ and the kcat/Km was found to be 8600 M⁻¹ s⁻¹.
Take A. flavus uricase (Aspergillus flavus): in data set [5], the Km is 96.2 µM, the kcat was determined as 0.0717 s⁻¹ and the kcat/Km was 733 M⁻¹ s⁻¹.

B1: A. globiformis uricase (Arthrobacter globiformis) (protein)
chain: MTATAETSTGTKVVLGQNQYGKAEVRLVKVTRNTARHEIQDLNVTSQLRGDFEAAHTAGDNAHVVATDTQKNTVYAFARDGFATTEEFLLRLGKHFTEGFDWVTGGRWAAQQFFWDRINDHDHAFSRNKSEVRTAVLEISGSEQAIVAGIEGLTVLKSTGSEFHGFPRDKYTTLQETTDRILATDVSARWRYNTVEVDFDAVYASVRGLLLKAFAETHSLALQQTMYEMGRAVIETHPEIDEIKMSLPNKHHFLVDLQPFGQDNPNEVFYAADRPYGLIEATIQREGSRADHPIWSNIAGFC
As to B1, in data set [6], the Km stood at 215 ± 2.16 µM, the kcat amounted to 0.0145 s⁻¹ and the kcat/Km was 67 M⁻¹ s⁻¹.

B2: C. utilis uricase (Williopsis jadinii) (protein)
chain: MSTTLSSSTYGKDNVKFLKVKKDPQNPKKQEVMEATVTCLLEGGFDTSYTEADNSSIVPTDTVKNTILVLAKTTEIWPIERFAAKLATHFVEKYSHVSGVSVKIVQDRWVKYAVDGKPHDHSFIHEGGEKRITDLYYKRSGDYKLSSAIKDLTVLKSTGSMFYGYNKCDFTTLQPTTDRILSTDVDATWVWDNKKIGSVYDIAKAADKGIFDNVYNQAREITLTTFALENSPSVQATMFNMATQILEKACSVYSVSYALPNKHYFLIDLKWKGLENDNELFYPSPHPNGLIKCTVVRKEKTKL
Consider B2, for which, in data set [7], the Km is 38.5 ± 5.16 µM, the kcat is 0.2027 s⁻¹ and the kcat/Km was determined as 5250 M⁻¹ s⁻¹.

B3: Kluyveromyces lactis uricase KlUOX (wild type) (SEQ ID NO.1) (Kluyveromyces lactis NRRL Y-1140) (protein)
chain: MSTYSYLADSTYGKDNVKFLKVKKSKTDPKVHEVMECNVQVLLKGDFEVSYTEADNTPIVPTDTVKNTILVHARKFDTWPIEKFAANLALHFTGKYAHVSGITVKIIQDRWIKYDVDNKESYHSFIHQGPEKKICFLDYDKKNGSSSYTLVTSIKDLTVLKSTGSMFYGYNVCEYTTLKPTTDRILSTDIFASLTWNSAKLGSLETLEAGKKDDIFNQYYASARDITLDIFAKENSPSVQATMYNMATAILKVAPEVEHVSYELPNKHYILFDLKWFKGLDNNNELFYPSPDPNGLIKCTVGRNQAKL
On to B3, for which, in data set [8], the Km is 40.8 µM, the kcat turned out to be 0.2027 s⁻¹ and the kcat/Km amounted to 4830 M⁻¹ s⁻¹.
